From US20220184221A1 (published 2022)
Where no end group is shown, it is not given here.

Columns and labels:
Assay in all cases: inhibition of recombinant KDM5 demethylase activity (H3K4me3 peptide); legend calls it IC50
recombinant KDM5C = target: T1, recombinant KDM5C (UniProt P41229 1-765)
T1 chain: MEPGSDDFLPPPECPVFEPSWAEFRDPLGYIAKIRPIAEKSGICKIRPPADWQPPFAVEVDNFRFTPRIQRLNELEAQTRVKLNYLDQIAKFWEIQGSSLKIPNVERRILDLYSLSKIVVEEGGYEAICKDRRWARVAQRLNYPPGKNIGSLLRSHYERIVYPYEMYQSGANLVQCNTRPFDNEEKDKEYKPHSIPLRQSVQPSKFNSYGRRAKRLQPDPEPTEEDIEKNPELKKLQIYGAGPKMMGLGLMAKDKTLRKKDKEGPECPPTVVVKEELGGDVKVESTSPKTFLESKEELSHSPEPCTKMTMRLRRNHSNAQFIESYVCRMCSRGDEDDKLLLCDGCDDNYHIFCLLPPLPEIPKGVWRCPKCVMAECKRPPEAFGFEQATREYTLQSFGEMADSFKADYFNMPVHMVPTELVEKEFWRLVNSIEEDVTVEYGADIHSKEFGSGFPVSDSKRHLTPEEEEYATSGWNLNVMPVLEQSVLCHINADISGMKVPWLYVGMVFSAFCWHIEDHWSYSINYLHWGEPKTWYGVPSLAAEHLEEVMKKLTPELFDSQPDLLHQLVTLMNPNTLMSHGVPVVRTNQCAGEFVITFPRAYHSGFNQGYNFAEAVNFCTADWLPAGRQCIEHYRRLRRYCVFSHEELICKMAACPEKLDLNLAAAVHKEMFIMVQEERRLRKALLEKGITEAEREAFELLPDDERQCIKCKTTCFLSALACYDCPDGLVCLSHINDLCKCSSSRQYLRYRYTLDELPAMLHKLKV

KDM5A = target: KDM5A
KDM5B = target: KDM5B

B1: EP4 (peptide)
peptide: TEDSKTHHH
modifications: also: fluorescein label in FP assay, end not given here
With B1 the EC50 (recombinant KDM5C) was 0.97 nM, the EC50 (KDM5A) was 422 nM and the EC50 (KDM5B) was 377 nM.
